Key:
[1] = molecular target: NM fibers (amyloid fibers assembled from Sup35 NM; also used sonicated as seed) (Saccharomyces cerevisiae) (UniProt P05453); experiment: seeded fibre elongation; sedimentation of soluble NM plus acrylodan wavelength-shift assay, Lineweaver-Burk plot
[2] = molecular target: NM fibers (amyloid fibers assembled from Sup35 NM; also used sonicated as seed) (Saccharomyces cerevisiae) (UniProt P05453); experiment: seeded fibre elongation; sedimentation of soluble NM plus acrylodan wavelength-shift assay, Lineweaver-Burk plot (Michaelis-Menten model of soluble NM binding to seed and converting)

Sequence of NM fibers (amyloid fibers assembled from Sup35 NM; also used sonicated as seed) (Saccharomyces cerevisiae) (P05453 1-253): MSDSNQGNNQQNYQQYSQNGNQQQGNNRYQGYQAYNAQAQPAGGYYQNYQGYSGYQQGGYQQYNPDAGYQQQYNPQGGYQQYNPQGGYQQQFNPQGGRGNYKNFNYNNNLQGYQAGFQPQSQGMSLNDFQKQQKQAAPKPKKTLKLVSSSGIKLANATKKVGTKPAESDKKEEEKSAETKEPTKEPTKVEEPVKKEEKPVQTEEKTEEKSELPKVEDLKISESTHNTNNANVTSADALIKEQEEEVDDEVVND

## NM^T158C-acrylodan (soluble) (from UniProt P05453 1-253) (other; other documents disagree on this pair)
[1]
  kconf/Km (conformational conversion efficiency): 42000 M⁻¹ s⁻¹
[2]
  Km: 0.12 µM

Source: patent publication US20090280480A1
